From the supplement of paper PMC9112550, “Optimization of the antimicrobial peptide Bac7 by deep mutational scanning” (BMC Biology, 2022)

Each sequence was assayed on Escherichia coli TOP10 (assay: shrunken log2 fold change of peptide-encoding DNA abundance (4.5 h post-induction vs induction); higher = less antimicrobial activity (less host growth inhibition)). Details: time post-induction: 4.5 h; library: site-saturation at positions 5, 18, 19, 20.
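Note: peptides expressed intracellularly from a pBAD plasmid library in pooled LB shake-flask culture, induced with 0.3% L-arabinose, DNA abundance read by NGS, three biological replicates, DESeq2 with apeglm shrinkage.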

Sequence	shrunken log2 fold change
RRIRTRPPRLPRPRPRPHNHPRP	-0.802
RRIRNRPPRLPRPRPRPTSKPRP	-0.0758
RRIRMRPPRLPRPRPRPPSVPRP	0.777
RRIRDRPPRLPRPRPRPKHGPRP	0.0517
RRIRYRPPRLPRPRPRPMRPPRP	0.512
RRIRARPPRLPRPRPRPKSCPRP	0.129
RRIRWRPPRLPRPRPRPADYPRP	-0.123
RRIRERPPRLPRPRPRPWYRPRP	-0.217
RRIRKRPPRLPRPRPRPLHLPRP	-0.198
RRIRFRPPRLPRPRPRPRCNPRP	-0.0427
RRIRCRPPRLPRPRPRPWQHPRP	-0.256
RRIRARPPRLPRPRPRPIRGPRP	0.0372
RRIRVRPPRLPRPRPRPKYIPRP	-0.821
RRIRCRPPRLPRPRPRPHDSPRP	-0.298
RRIRNRPPRLPRPRPRPPMQPRP	0.0237
RRIRWRPPRLPRPRPRPHVWPRP	0.126
RRIRFRPPRLPRPRPRPHCDPRP	-0.252
RRIRFRPPRLPRPRPRPLSHPRP	-0.512
RRIRNRPPRLPRPRPRPAIAPRP	0.0215
RRIRNRPPRLPRPRPRPMVEPRP	-0.481
RRIRIRPPRLPRPRPRPQNYPRP	-0.428
RRIRQRPPRLPRPRPRPFVVPRP	0.0366
RRIRNRPPRLPRPRPRPQWIPRP	-0.446
RRIRIRPPRLPRPRPRPISFPRP	0.00109
RRIRGRPPRLPRPRPRPQEMPRP	0.0954

Sequence	shrunken log2 fold change
RRIRWRPPRLPRPRPRPAFYPRP	0.371
RRIRTRPPRLPRPRPRPRSAPRP	0.0929
RRIRVRPPRLPRPRPRPYWHPRP	-0.636
RRIRGRPPRLPRPRPRPVTMPRP	0.396
RRIRSRPPRLPRPRPRPQFQPRP	-0.124
RRIRWRPPRLPRPRPRPANHPRP	-0.262
RRIRARPPRLPRPRPRPKFRPRP	-0.043
RRIRERPPRLPRPRPRPQGEPRP	-0.0686
RRIRHRPPRLPRPRPRPGAKPRP	0.219
RRIRIRPPRLPRPRPRPCDKPRP	-0.0161
RRIRHRPPRLPRPRPRPFLDPRP	-0.751
RRIRFRPPRLPRPRPRPEHYPRP	-0.101
RRIRWRPPRLPRPRPRPRGIPRP	0.234
RRIRRRPPRLPRPRPRPWSHPRP	-0.121
RRIRFRPPRLPRPRPRPEPLPRP	0.0513
RRIRPRPPRLPRPRPRPTKDPRP	-0.166
RRIRERPPRLPRPRPRPQRSPRP	-0.106
RRIRTRPPRLPRPRPRPSECPRP	-0.166
RRIRNRPPRLPRPRPRPHFEPRP	0.066
RRIRIRPPRLPRPRPRPYYRPRP	-0.105
RRIRHRPPRLPRPRPRPVQNPRP	0.171
RRIRSRPPRLPRPRPRPTMVPRP	0.0872
RRIRIRPPRLPRPRPRPKLCPRP	0.0563
RRIRPRPPRLPRPRPRPPIGPRP	0.287
RRIRLRPPRLPRPRPRPDKYPRP	-0.769

Sequence	shrunken log2 fold change
RRIRDRPPRLPRPRPRPVIRPRP	-0.19
RRIRIRPPRLPRPRPRPHYTPRP	-0.591
RRIRMRPPRLPRPRPRPDMLPRP	0.0647
RRIRLRPPRLPRPRPRPNETPRP	-0.0172
RRIRTRPPRLPRPRPRPPDFPRP	0.0547
RRIRIRPPRLPRPRPRPFMVPRP	-0.975
RRIRKRPPRLPRPRPRPHTHPRP	-0.0896
RRIRERPPRLPRPRPRPTPPPRP	0.491
RRIRLRPPRLPRPRPRPMNAPRP	-0.446
RRIRHRPPRLPRPRPRPYSPPRP	-0.0769
RRIRLRPPRLPRPRPRPLLYPRP	-0.326
RRIRSRPPRLPRPRPRPMCMPRP	-0.000628
RRIRCRPPRLPRPRPRPVVCPRP	0.113
RRIRSRPPRLPRPRPRPDRTPRP	-0.256
RRIRERPPRLPRPRPRPFPPPRP	-0.38
RRIRTRPPRLPRPRPRPEHPPRP	0.716
RRIRDRPPRLPRPRPRPDRQPRP	0.0286
RRIRPRPPRLPRPRPRPGLYPRP	-0.132
RRIRTRPPRLPRPRPRPHDNPRP	-0.574
RRIRMRPPRLPRPRPRPAKAPRP	0.0749
RRIRARPPRLPRPRPRPADRPRP	0.256
RRIRHRPPRLPRPRPRPTVVPRP	-0.00918
RRIRFRPPRLPRPRPRPTKTPRP	-0.0652
RRIRGRPPRLPRPRPRPYFHPRP	-0.462
RRIRNRPPRLPRPRPRPPRKPRP	0.523
